Measured values from the supplement of paper PMC7877785.
± gives the uncertainty stated by the source.

Assay: self-splicing fitness, log relative to wild type (ln ratio); higher = more splicing; Tetrahymena group I intron in knt gene, E. coli kanamycin selection, DiMSum; sequences stand for … in CUCUCU…GGAGGGAAAAGUUAUCAGGCAUGCACCUGGUAGCUAGUCUUUAAACCAAUAGAUUGCAUCGGUUUAAAAGGCAAGACCGUCAAAUUGCGGGAAAGGGGUCAACAGCCGUUCAGUACCAAGUCUCAGGGGAAACUUUGAGAUGGCCUUGCAAAGGGUAUGGUAAUAAGCUGACGGACAUGGUCCUAACCACGCAGCCAAGUCCUAAGUCAACAGAUCUUCUGUUGAUAUGGAUGCAGUUCACAGACUAAAUGUCGGUCGGGGAAGAUGUAUUCUUCUCAUAAGAUAUAGUCGGACCUCUCCUUAAUGGGAGCUAGCGGAUGAAGUGAUGCAACACUGGAGCCGCUGGGAACUAAUUUGUAUGCGAAAGUAUAUUGAUUAGUUUUGGAGUACUCGUGGUCG
Procedure, shortened: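 Six replicate transformations of E. coli BL21(DE3) with a pET-22b(+) library were grown overnight at 37°C or 30°C. The library randomised all eight P1ex-region intron nucleotides, the intron lying in the knt kanamycin-resistance gene, and plates were LB agar with or without 25 μg/mL kanamycin plus 100 μg/mL carbenicillin, 50 μM IPTG and 0.2% rhamnose. Pooled colonies were amplicon-sequenced on an Illumina HiSeq 2500, and fitness is the DiMSum error-weighted combination of wild-type-normalised replicate fold changes, kanamycin versus none.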

Sequence | self-splicing fitness (ln) (30 °C) | self-splicing fitness (ln) (37 °C)
CGUAAGCAAUAUUACGUUGC | -2.73 ± 0.22 | -1.81 ± 0.29
UGCUAGCAAUAUUACGUUCU | -0.686 ± 0.092 | -0.861 ± 0.12
AUUCAGCAAUAUUACGGUGU | -0.571 ± 0.042 | -0.106 ± 0.055
UAGCAGCAAUAUUACGCCAG | -1.46 ± 0.13 | -0.751 ± 0.19
GUAAAGCAAUAUUACGGUGU | -1.5 ± 0.056 | -0.647 ± 0.07
CGGAAGCAAUAUUACGGCGA | -0.522 ± 0.3 | 
GGUAAGCAAUAUUACGGGAA | -2.54 ± 0.39 | -2.06 ± 0.32
UUUCAGCAAUAUUACGUUAA | -1.45 ± 0.077 | -1.09 ± 0.076
GCAUAGCAAUAUUACGUUGA | -2.41 ± 0.12 | -1.76 ± 0.1
UGGGAGCAAUAUUACGCGGA |  | -2.73 ± 0.34
UAACAGCAAUAUUACGGCCG | -0.568 ± 0.078 | 0.226 ± 0.12
CGCUAGCAAUAUUACGCUUU | -3.13 ± 0.18 | -2.32 ± 0.2
ACAUAGCAAUAUUACGAUUG | -2.62 ± 0.1 | -0.942 ± 0.11
UCCAAGCAAUAUUACGAAUG | -4.26 ± 0.21 | -2.95 ± 0.2
AUACAGCAAUAUUACGCCUU | -0.541 ± 0.06 | -0.208 ± 0.073
AGGAAGCAAUAUUACGAUCG | -1.27 ± 0.16 | -0.489 ± 0.16
ACCGAGCAAUAUUACGUAGC | -3.46 ± 0.16 | -1.61 ± 0.15
CAUAAGCAAUAUUACGUGUG | -3.56 ± 0.15 | -2.94 ± 0.17
UCGCAGCAAUAUUACGGUUU | -3.17 ± 0.12 | -1.72 ± 0.12
AUAAAGCAAUAUUACGGAAA | -1.11 ± 0.11 | -1.12 ± 0.18
CAUUAGCAAUAUUACGGGUA | -1.06 ± 0.11 | -0.972 ± 0.13
AGCUAGCAAUAUUACGACGC | -1.63 ± 0.098 | -0.406 ± 0.13
AUGAAGCAAUAUUACGUCCA | -0.138 ± 0.075 | 0.611 ± 0.11
UCUGAGCAAUAUUACGUGGU | -2.58 ± 0.13 | -2.21 ± 0.15
UUAGAGCAAUAUUACGAUGG | -1.02 ± 0.15 | 0.108 ± 0.19

Sequence | self-splicing fitness (ln) (30 °C) | self-splicing fitness (ln) (37 °C)
UGUCAGCAAUAUUACGUCCG | -0.177 ± 0.17 | 0.083 ± 0.2
GGACAGCAAUAUUACGUAGG | -0.254 ± 0.053 | -0.517 ± 0.063
CUACAGCAAUAUUACGACCG | 0.86 ± 0.11 | -0.315 ± 0.14
AGGUAGCAAUAUUACGGUCG | -0.351 ± 0.014 | -0.0478 ± 0.034
CUGUAGCAAUAUUACGGGUA | -1.96 ± 0.35 | 
CAAAAGCAAUAUUACGAUUG | -2.75 ± 0.087 | -1.82 ± 0.1
UUACAGCAAUAUUACGUCCC | -3.48 ± 0.24 | -1.31 ± 0.25
UUAAAGCAAUAUUACGCACC | -0.965 ± 0.33 | -0.676 ± 0.44
CGGAAGCAAUAUUACGUUAG | -1.41 ± 0.061 | -0.697 ± 0.077
AGGCAGCAAUAUUACGAGCG | -1.13 ± 0.074 | 0.237 ± 0.088
ACACAGCAAUAUUACGUGGC | -3.54 ± 0.23 | -0.291 ± 0.13
GAAGAGCAAUAUUACGUGAA | -2.94 ± 0.15 | -2.03 ± 0.17
AAACAGCAAUAUUACGGUUU | -3.64 ± 0.11 | -2.51 ± 0.12
CUGAAGCAAUAUUACGACGU | -2.75 ± 0.12 | -1.09 ± 0.1
AGCCAGCAAUAUUACGAGUC |  | -1.61 ± 0.21
CAGAAGCAAUAUUACGCGCU | -2.62 ± 0.17 | -1.92 ± 0.18
GGUAAGCAAUAUUACGCGAA | -1.27 ± 0.15 | -1.15 ± 0.16
CACGAGCAAUAUUACGUCAC | -3.41 ± 0.2 | -3.18 ± 0.37
CAUUAGCAAUAUUACGGCAC | -4.19 ± 0.46 | -1.1 ± 0.17
AAGUAGCAAUAUUACGACCA | -1.55 ± 0.16 | 0.396 ± 0.21
CGAGAGCAAUAUUACGUUAU | -3.57 ± 0.28 | -2.8 ± 0.28
GACUAGCAAUAUUACGACCG | -0.436 ± 0.3 | -0.537 ± 0.34
UCGAAGCAAUAUUACGACUA | -1.05 ± 0.16 | -0.97 ± 0.13
UAGUAGCAAUAUUACGUAUA | -1.69 ± 0.25 | -1.14 ± 0.27
